Test results as given in article PMC10576006 (2023).

Columns and labels:
[1] = target: T1, human wildtype KRas4B 1-169 (C-terminal truncated) (human, UniProt P01116-2 1-169); assay: BLI; 1:2 bivalent model
[2] = target: T1, human wildtype KRas4B 1-169 (C-terminal …); assay: BLI; 2:1 heterogeneous model, binding type 2 (69-99 %)

B1: GST-Rgl2^RA (Ras association domain of human Rgl2, residues 643-740, fused with GST) (domain or fragment)
chain: GPGASDCRIIRVQMELGEDGSVYKSILVTSQDKAPSVISRVLKKNNRDSAVASEYELVQLLPGERELTIPASANVFYAMDGASHDFLLRQRRRSSTAT
Kd [1]: 48.2 µM | Kd [2]: 1.62 µM
